From patent US11708423B2, “Chimeric engulfment receptor molecules and methods of use” (CERO THERAPEUTICS, INC., priority 2017, dated 2023)

Key:
Assay type in all cases: cell-based
ALK+A549 cells = test: LDH cytotoxicity assay, A549 ALK+ cells, 18 hours co-culture; settings: Crizotinib or Alectinib 0, 2500, 3700 nM; E:T 2:1 or 5:1; 18 hours
Experimental: An ELM4-ALK translocation was introduced into A549 cells. […] Assays were performed with purified tEGFR^+ (transduction marker), CER-expressing T cells 7 days after activation using CD3 & CD28 microbeads at effector: target cell ratios of 2:1 or 5:1. Mock T cells were transduced with vector alone and used as control. After 18 hours of co-culture, bulk supernatants were evaluated using a LDH cytoxicity assay indicating cell killing (FIGS. 65A-B).

[1] = system: HCC159 lung adenocarcinoma cells; test: LDH-based cytotoxicity, HCC159 cells; settings: Osimeritinib 0, 1, 5 nM; E:T 2:1 or 5:1; 18 hours
Experimental: HCC159 lung adenocarcinoma cells were co-cultured with CER123- or CER126-expressing CD4+ T cells with increasing concentrations of Osimeritnib (0, 1 nM, 5 nM). After 18 hours of co-culture, bulk supernatants were evaluated using a LDH-based cytotoxicity assay. T cells assays were performed using purified, EGFR^+ (transduction marker), CER modified T cells 7 days after activation using CD3 & CD28 microbeads at effector:target cell ratios of 2:1 or 5:1. Control “Mock” T cells were transduced with vector alone. […] Bulk supernatants were also analyzed after 18 hours of co-culture for Interferon Gamma (IFNγ) secretion (FIG. 50). Control “Mock” T cells were transduced with vector alone.

[2] = system: H1975 lung adenocarcinoma cells; test: MTT viability of H1975 cells co-cultured with CER T cells and Osimeritinib; settings: Osimeritinib 250, 500, 1000 nM; CD4+ T cells, E:T 1:1, 2:1, 5:1; 48 hours
Excerpt: H1975 lung adenocarcinoma cells harboring an EGFR mutation were co-cultured with CER123- or CER126-modified or Mock-transduced (vector only) CD4+ T cells with increasing concentrations of Osimeritinib. CER123 has a polypeptide sequence as set forth in SEQ ID NO:150 and comprises a Tim4 binding domain, Tim4 transmembrane domain, and an engulfment signaling domain comprising a primary engulfment signaling domain comprising a TLR2 signaling domain and a secondary engulfment signaling domain comprising a TRAF6 signaling domain. CER126 has a polypeptide sequence as set forth in SEQ ID NO:174 and comprises a Tim4 binding domain, Tim4 transmembrane domain, and an engulfment signaling domain comprising a primary engulfment signaling domain comprising a TLR2 signaling domain and a secondary engulfment signaling domain comprising a TRAF2 signaling domain. CD4 T cells were transduced with a lentiviral vector comprising CER123 or CER126 nucleic acid and truncated EGFR (transduction marker) nucleic acid. Assays were performed using CER modified T cells purified by FACS using an EGFR specific antibody 7 days after activation using CD3 & CD28 microbeads. CER modified T cells and H1975 cells were co-cultured at effector:target cell ratio (E:T) of 1:1, 2:1, or 5:1. After 48 hours of co-culture in the presence of Osimeritinib (0, 250 nM, 500 nM, or 1000 nM), T cells were washed away, and the number of viable H1975 cells were quantified using a calorimetric MTT assay. Cell viability experiments were performed in triplicate and presented as % of control (FIG. 45A).

B1: CER123: Tim4 binding and transmembrane domains, TLR2 primary and TRAF6 secondary signaling domains; SEQ ID NO:150 (protein)
chain: MSKGLLLLWLVTELWWLYLTPAASEDTIIGFLGQPVTLPCHYLSWSQSRNSMCWGKGSCPNSKCNAELLRTDGTRIISRKSTKYTLLGKVQFGEVSLTISNTNRGDSGVYCCRIEVPGWFNDVKKNVRLELRRATTTKKPTTTTRPTTTPYVTTTTPELLPTTVMTTSVLPTTTPPQTLATTAFSTAVTTCPSTTPGSFSQETTKGSAFTTESETLPASNHSQRSMMTISTDIAVLRPTGSNPGILPSTSQLTTQKTTLTTSESLQKTTKSHQINSRQTILIIACCVGFVLMVLLFLAFLHRFHGLWYMKMMWAWLQAKRKPRKAPSRNICYDAFVSYSERDAYWVENLMVQELENFNPPFKLCLHKRDFIPGKWIIDNIIDSIEKSHKTVFVLSENFVKSEWCKYELDFSHFRLFDENNDAAILILLEPIEKKAIPQRFCKLRKIMNTKTYLEWPMDEAQREGFWVNLRAAIKSMSLLNCENSCGSSQSESDCCVAMASSCSAVTKDDSVGGTASTGNLSSSFMEEIQGYDVEFDPPLESKYECPICLMALREAVQTPCGHRFCKACIIKSIRDAGHKCPVDNEILLENQLFPDNFAKREILSLMVKCPNEGCLHKMELRHLEDHQAHCEFALMDCPQCQRPFQKFHINIHILKDCPRRQVSCDNCAASMAFEDKEIHDQNCPLANVICEYCNTILIREQMPNHYDLDCPTAPIPCTFSTFGCHEKMQRNHLARHLQENTQSHMRMLA
modifications: CER123 protein
cell killing of A549 ALK+ cells (LDH) (ALK+A549 cells): dose-dependent inducible cytokine secretion and cell killing responses | cell killing of HCC159 cells (LDH) [1]: inducible cell killing responses | growth/viability of H1975 cells (MTT) [2]: synergistically suppressed
